# Earlier results in paper PMC4586255.
# Read-outs that look alike come from different tables or passages of the source.
# What was measured:
# PCNA (Homo sapiens) [1] = biological target: PCNA (Homo sapiens) (UniProt P12004)
# PCNA (Homo sapiens) [2] = biological target: PCNA (Homo sapiens) (UniProt P12004); remark: listed apart in the source
# Sequence of PCNA (Homo sapiens) (P12004 whole entry): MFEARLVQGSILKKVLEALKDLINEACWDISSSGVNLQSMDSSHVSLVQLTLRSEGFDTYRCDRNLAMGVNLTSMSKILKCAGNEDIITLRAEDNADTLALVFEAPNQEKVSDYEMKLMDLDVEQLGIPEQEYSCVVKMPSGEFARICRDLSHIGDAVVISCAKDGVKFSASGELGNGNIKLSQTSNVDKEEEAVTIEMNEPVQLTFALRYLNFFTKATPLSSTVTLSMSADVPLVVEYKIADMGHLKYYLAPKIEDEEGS
# Sequence of FEN1 PIP-box peptide PIP-box peptide (P39748 331-350): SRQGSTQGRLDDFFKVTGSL
# Sequence of p21 PIP-box peptide PIP-box peptide (P38936 139-160): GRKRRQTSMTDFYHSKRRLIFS
Kd (PCNA (Homo sapiens) [1]) [µM],Kd (PCNA (Homo sapiens) [2]) [µM],Substance
59,–,FEN1 PIP-box peptide PIP-box peptide (from UniProt P39748)
–,0.082,p21 PIP-box peptide PIP-box peptide (from UniProt P38936)
